# From the supplement of paper PMC10126150
# ± gives the standard deviation of the averaged measurements.
# System: ATP
# Assay: switch fluorescence ratio, 500 uM ATP over buffer (Cy3 cluster intensity, sum of 5 cycles each) (fold (ratio)); higher = stronger signal-on switching upon ATP binding; sequences stand for … in TCGTCGGCAGCGTCAGATGTGTATAAGAGACAGTTTTTTTTTTTTTTTTTTTTTTTTT…TC
# Details: aptamer strand: ATP DNA aptamer (quencher-CACCTGGGGGAGTATTGCGGAGGAAGG + anchor), 100 nM annealed; ATP concentration: 500 uM
# In short: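 Values give the fluorescence ratio for each switch-domain sequence, averaged from per-cluster ratios of summed target-cycle to summed buffer-cycle Cy3 intensity. The Cy3-labelled switching-strand clusters sat on a modified Illumina MiSeq flow-cell, were annealed to 100 nM quencher-labelled ATP aptamer, and were imaged in selection buffer, then after 15 min with 500 uM ATP at 22 °C. Five cycles ran with NaOH stripping and re-annealing between them, and clusters outside 100-1000 RFU were excluded.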
# 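Further: ATP exposure 15 min at 22 °C before imaging.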
row,Sequence,switch fluorescence ratio
1,AATGAAAGGG,0.988 ± 0.025
2,AATGAAGAAG,1.17 ± 0.22
3,AATGAAGCTC,0.966 ± 0.051
4,AATGAAGGGG,0.987 ± 0.031
5,AATGAATGCA,1.004 ± 0.0014
6,AATGAATTCG,1 ± 0.031
7,AATGACTAAT,1.01 ± 0.017
8,AATGACTATG,0.976 ± 0.056
9,AATGAGGGCG,0.9825 ± 0.0018
10,AATGATAAGC,1.04 ± 0.028
11,AATGATTAGT,0.998 ± 0.032
12,AATGATTGAA,0.968 ± 0.023
13,AATGATTGGA,1.02 ± 0.041
14,AATGCAGTGC,1.26 ± 0.09
15,AATGCATCTA,0.989 ± 0.025
16,AATGCATGGG,0.989 ± 0.046
17,AATGCCCGGC,1.02 ± 0.11
18,AATGCCGGCC,1.08 ± 0.028
19,AATGCGGGGG,1 ± 0.025
20,AATGCGTTCG,0.99211 ± 0.00042
21,AATGCTCTTC,0.973 ± 0.04
22,AATGCTTGGG,1.0044 ± 8.7e-05
23,AATGGAAATT,0.996 ± 0.063
24,AATGGCCGCG,1.08 ± 0.11
25,AATGGCGGCA,1.06 ± 0.078

row,Sequence,switch fluorescence ratio
1,AATGGCGGGA,1.021 ± 0.0015
2,AATGGCGTAT,1.02 ± 0.029
3,AATGGCTAGG,1.01 ± 0.014
4,AATGGGAAGA,0.9987 ± 0.0043
5,AATGGGATGT,0.981 ± 0.017
6,AATGGGGATG,0.998 ± 0.058
7,AATGGGGGCG,0.9633 ± 0.0089
8,AATGGGGGCT,1.02 ± 0.022
9,AATGGGGGGG,0.998 ± 0.034
10,AATGGGGTAA,0.995 ± 0.014
11,AATGGGGTCA,0.991 ± 0.024
12,AATGGGTTGG,0.9875 ± 0.0082
13,AATGGTCGGC,0.996 ± 0.011
14,AATGGTCTCG,0.9842 ± 0.006
15,AATGGTGAGG,1.05 ± 0.051
16,AATGGTGGCC,1 ± 0.018
17,AATGGTGTGG,0.995 ± 0.014
18,AATGGTTTTT,0.991 ± 0.031
19,AATGTAAGGA,1.03 ± 0.065
20,AATGTAAGTT,0.975 ± 0.025
21,AATGTAGGGA,1.06 ± 0.051
22,AATGTAGTTT,0.993 ± 0.032
23,AATGTCGGGC,1.02 ± 0.022
24,AATGTCTCAG,1.014 ± 0.0091
25,AATGTCTGGG,0.9982 ± 0.0018

row,Sequence,switch fluorescence ratio
1,AATGTGAATG,0.992 ± 0.021
2,AATGTGACAT,0.982 ± 0.033
3,AATGTGAGCT,1.04 ± 0.043
4,AATGTGCAGT,0.9627 ± 0.0043
5,AATGTGTTGG,0.984 ± 0.025
6,AATGTTAGGA,0.974 ± 0.017
7,AATGTTGGGA,0.995 ± 0.015
8,AATGTTGGTG,0.998 ± 0.018
9,AATGTTTGTA,0.9936 ± 0.0094
10,AATTAAAAAT,0.987 ± 0.017
11,AATTAACGGC,1.07 ± 0.083
12,AATTAAGGCA,0.9756 ± 0.0065
13,AATTAATATT,0.988 ± 0.021
14,AATTACCTCG,1.04 ± 0.043
15,AATTAGACGA,0.958 ± 0.034
16,AATTAGATTT,1.021 ± 0.0055
17,AATTAGGGGT,1.01 ± 0.02
18,AATTAGTGTG,0.987 ± 0.022
19,AATTAGTTGC,0.989 ± 0.016
20,AATTATAATG,1.034 ± 0.0047
21,AATTATCGGC,0.998 ± 0.049
22,AATTATGTAA,0.988 ± 0.036
23,AATTATTGTA,0.979 ± 0.049
24,AATTCAGCAT,1.03 ± 0.036
25,AATTCCCTTT,0.9946 ± 0.0012

row,Sequence,switch fluorescence ratio
1,AATTCCTCAG,1.43 ± 0.1
2,AATTCCTCAT,1.04 ± 0.024
3,AATTCCTTGG,0.984 ± 0.034
4,AATTCTCTGT,1.03 ± 0.066
5,AATTGAACGG,0.9995 ± 0.0042
6,AATTGAAGGG,0.996 ± 0.015
7,AATTGACGTA,1.021 ± 0.0069
8,AATTGAGTGG,1.009 ± 0.0077
9,AATTGATAGG,0.982 ± 0.041
10,AATTGGAGGG,1 ± 0.029
11,AATTGGCTTA,0.997 ± 0.027
12,AATTGGGCGA,0.989 ± 0.026
13,AATTGGGCGC,1.01 ± 0.011
14,AATTGGGGGT,0.992 ± 0.038
15,AATTGGGTAT,1.0014 ± 0.00066
16,AATTGGGTGC,1.09 ± 0.12
17,AATTGGTCGT,0.965 ± 0.043
18,AATTGTAAGA,0.992 ± 0.025
19,AATTGTAGGT,0.9731 ± 0.0046
20,AATTGTAGTA,0.996 ± 0.051
21,AATTGTTCGT,0.98 ± 0.036
22,AATTGTTGTC,0.985 ± 0.01
23,AATTTCGCTT,1 ± 0.037
24,AATTTCTGGG,1.06 ± 0.058
25,AATTTGACCC,0.9966 ± 0.0026

row,Sequence,switch fluorescence ratio
1,AATTTGATTC,1.02 ± 0.058
2,AATTTGGTTT,1.02 ± 0.021
3,AATTTGTAGG,1 ± 0.02
4,AATTTGTGTT,0.992 ± 0.01
5,AATTTTAACA,1 ± 0.016
6,AATTTTACGG,1.07 ± 0.024
7,AATTTTAGTA,1.02 ± 0.019
8,AATTTTAGTC,0.994 ± 0.04
9,AATTTTCAGA,1.03 ± 0.019
10,AATTTTGGTG,0.998 ± 0.047
11,AATTTTTAGT,0.981 ± 0.024
12,AATTTTTCGC,0.98 ± 0.024
13,AATTTTTGAG,0.988 ± 0.024
14,AATTTTTGTT,1 ± 0.029
15,ACAAATTGTT,1.09 ± 0.069
16,ACAACCAGGA,1.737 ± 0.00071
17,ACAACCGGGG,1.37 ± 0.029
18,ACAACGCGT,0.982 ± 0.013
19,ACAAGACTTA,1.04 ± 0.018
20,ACAAGATCGG,1.0072 ± 0.00016
21,ACAAGGGAAG,0.988 ± 0.015
22,ACAAGTGGAC,1.033 ± 0.0026
23,ACAAGTGTGC,1.04 ± 0.018
24,ACAAGTTTAA,0.997 ± 0.025
25,ACAATAATAT,1 ± 0.028

row,Sequence,switch fluorescence ratio
1,ACAATCTCTT,1.02 ± 0.025
2,ACAATGCTTT,1.03 ± 0.017
3,ACAATTGATG,1 ± 0.04
4,ACACAGGCTA,1.027 ± 0.005
5,ACACAGTGCT,1 ± 0.011
6,ACACTTAAGT,1.02 ± 0.029
7,ACACTTGCCA,1.09 ± 0.019
8,ACAGAAATGG,1.014 ± 0.0011
9,ACAGACCTAA,1.14 ± 0.013
10,ACAGACTCGC,1.01 ± 0.019
11,ACAGACTGAA,1.16 ± 0.019
12,ACAGATACAG,1.07 ± 0.025
13,ACAGATGGAA,1.005 ± 0.0068
14,ACAGATGGGG,1.01 ± 0.015
15,ACAGATTAGT,1 ± 0.024
16,ACAGCAGGGC,1.07 ± 0.07
17,ACAGCTGTTA,1.02 ± 0.019
18,ACAGGACTTA,1.09 ± 0.021
19,ACAGGAGGGG,1.04 ± 0.018
20,ACAGGATACA,1.14 ± 0.078
21,ACAGGGAGGG,1.02 ± 0.015
22,ACAGGGGCGG,1.008 ± 0.006
23,ACAGGGGGAA,1.01 ± 0.024
24,ACAGGGGTGT,1.09 ± 0.014
25,ACAGGTACAT,1.12 ± 0.034

row,Sequence,switch fluorescence ratio
1,ACAGTACTTG,1.292 ± 0.0098
2,ACAGTACTTT,1.26 ± 0.019
3,ACAGTAGTAG,1.07 ± 0.026
4,ACAGTGTGTT,0.979 ± 0.018
5,ACAGTTAATA,1.06 ± 0.018
6,ACAGTTATTC,1.02 ± 0.048
7,ACAGTTGGGT,1.002 ± 0.0047
8,ACATAAAAGG,0.994 ± 0.021
9,ACATACATTG,1.27 ± 0.061
10,ACATAGGTCA,1.02 ± 0.022
11,ACATAGGTGA,1.1 ± 0.069
12,ACATAGTTTG,0.9892 ± 0.0034
13,ACATATAGAG,1.051 ± 0.0097
14,ACATCGGATG,0.995 ± 0.025
15,ACATCGGGAT,1.017 ± 0.0012
16,ACATCGGTTC,1.02 ± 0.029
17,ACATCTATTC,1.01 ± 0.034
18,ACATGACAGA,1.08 ± 0.038
19,ACATGACATG,1.04 ± 0.03
20,ACATGAGAAA,0.988 ± 0.052
21,ACATGCTGTA,0.995 ± 0.024
22,ACATGGGGA,1.002 ± 0.0018
23,ACATGGGGTT,0.998 ± 0.03
24,ACATGTAGCG,0.99 ± 0.021
25,ACATGTGGCA,1.04 ± 0.018

row,Sequence,switch fluorescence ratio
1,ACATTAACTA,1.09 ± 0.019
2,ACATTCATCG,1.06 ± 0.034
3,ACATTCCTGT,1.05 ± 0.046
4,ACATTCTGGA,0.988 ± 0.031
5,ACATTGAGGT,1.01 ± 0.048
6,ACATTGTTTT,1.02 ± 0.021
7,ACATTTATCT,1.02 ± 0.02
8,ACATTTATGG,0.999 ± 0.021
9,ACATTTGGGT,1.0104 ± 0.00044
10,ACATTTTTAT,1.03 ± 0.015
11,ACATTTTTTT,1.01 ± 0.029
12,ACCAAACCGG,1.039 ± 0.0079
13,ACCAAAGGCG,1.04 ± 0.043
14,ACCAACCGTG,1.1028 ± 0.00051
15,ACCACGTGAC,1.51 ± 0.035
16,ACCAGCGAAT,1.06 ± 0.043
17,ACCAGCTTTT,1.04 ± 0.03
18,ACCAGGTGTG,3.53 ± 0.34
19,ACCAGTAGGT,1.01 ± 0.035
20,ACCATACTGT,1.33 ± 0.055
21,ACCATATTTG,1.04 ± 0.058
22,ACCATATTTT,1.073 ± 0.0094
23,ACCATCCGGC,1.12 ± 0.012
24,ACCATTACAC,1.24 ± 0.024
25,ACCATTAGCA,0.998 ± 0.022
